Data set [1] deals with human lung cancer LC-11-JCK. In words: Anti-tumor activity test, human lung cancer LC-11-JCK transplanted subcutaneously in F344 nude rat. The conditions noted are these: for Relative ratio of tumor volume: F344 nude rat, day 23 after administration start, relative to no-treatment group (100.0); for Anti-tumor effects in comparison to 3′-ethynylcytidine as the control drug: maximum dose, when the change of the body weight was about 10% or less of the maximum decrease rate. The format is in vivo. Here is the method:
The human lung cancer LC-11-JCK which had been subcultured under the skin of a rat was made to a block of about 2 mm square, and transplanted subcutaneously into the dorsal part of F344 nude rat using an over-needle catheter. From day 13 after the tumor transplant, the polymer derivative of the present invention (Compound 5, Compound 10) was administered intravenously single time in the dose listed in Table 1. In addition, the control drug (3′-ethynylcytidine; ECyd) was administered subcutaneously by infusion over 24 hours using Alzet pump. Meanwhile, each compound was used as dissolved in 5% glucose solution. The administration was performed such that the dose when the change of the body weight was about 10% of the maximum decrease rate was taken as the maximum dose.
The tumor volume was measured on the start day of the administration and on day 23 after the administration start with vernier calipers for the major axis (L mm) and minor axis (W mm) of the tumor, and the tumor volume was calculated from (L×W^2)/2, and the relative ratio of the tumor volume with respect to the tumor volume of the no-treatment group (control) was listed in Table 1.

Data set [2] in a line: Medicament release of 3′-ethynylcytidine polymer derivative in the absence of enzyme (PBS, pH 7.4, 37° C.). Format: physicochemical. Conditions: 1 mg/mL, no hydrolysis enzyme. The protocol: Compound 5, Compound 10, Compound 15, Compound 21 and Compound 22, and PEG-Glu-ECyd in which 3′-ethynylcytidine derivative is bonded to a polyethylene glycol-polyglutamic acid block copolymer, and PEG-Glu-(ECyd, PheOBzl) in which 3′-ethynylcytidine and phenylalanine benzyl ester are bonded to a polyethylene glycol-polyglutamic acid block copolymer, which were manufactured by the method described in the pamphlet of WO 2006/120914 A as the comparative compounds, were dissolved in PBS solution (phosphate buffered saline; pH 7.4) at 1 mg/mL of the concentration, respectively, and incubated at 37° C. The 3′-ethynylcytidine released from each polymer derivative was quantified using HPLC. The ratio to the total amount of the medicament in the polymer derivative found out from the quantified value and the content of the medicament of the polymer derivative are indicated in FIGS. 1 to 3.

Data set [3] is described as follows: Particle size (RMS radius) and micelle formation in aqueous solution by dynamic and static light scattering. The format is physicochemical. Conditions: aqueous solution 1 mg/mL; for RMS radius by Gaussian distribution analysis (dynamic light scattering): volume weighting. Here is the method:
Hereinafter, the present invention will be further explained with Examples. However, the present invention is not limited to these Examples. Meanwhile, when the compound of the present invention forms particles such as a micelle in an aqueous solution in Examples, the size of the particles (particle size) is indicated with Gaussian distribution analysis by dynamic light scattering method or by static light scattering method as RMS radius. The former was measured with Zeta Potential/Particle sizer NICOMP™ 380ZLS (manufactured by Particle Sizing Systems), and the latter was measured with DAWN EOS™ (manufactured by Wyatt Technology), and calculated.

Where [4] appears, read: single intravenous administration, dose 6 mg/Kg in conversion to 3′-ethynylcytidine.
[5] abbreviates: single intravenous administration, dose 12 mg/Kg in conversion to 3′-ethynylcytidine.

Consider `C#C[C@@]1(O)[C@@H](CO)O[C@@H](n2ccc(N)nc2=O)[C@@H]1O` [Control drug, 3′-ethynylcytidine, reference compound], for which, in data set [1] (subcutaneous infusion over 24 hours using Alzet pump, dose 6 mg/Kg), the “Relative ratio of tumor volume” value was determined as 49.4.

“amide-bonded body of block copolymer including methoxy polyethylene-glycol structural moiety having 12,000 of the molecular weight and polyglutamic acid moiety having 21 of the polymerization number, to aspartic acid-1-adamantane methyl amide-4-(3′-ethynylcytidine)amide [Compound 15]”: in data set [2], the “Release of 3′-ethynylcytidine from the polymer derivative” value (from here on “Release … from the polymer derivative”) is given as “release 3′-ethynylcytidine despite the absence of a hydrolysis enzyme” and the “Release rate of 3′-ethynylcytidine relative to the comparative compounds” value is “equal to or more than that of the comparative compounds”. Further, in data set [3], the “Micelle formation in water” value was “formed a micelle in water”, the “RMS radius by static light scattering method” value was 13 nm and the “RMS radius by Gaussian distribution analysis (dynamic light scattering)” value (“RMS radius … (dynamic light scattering)” below) was found to be 20 nm.

Regarding “amide-bonded body of block copolymer including methoxy polyethylene-glycol structural moiety having 12,000 of the molecular weight and polyglutamic acid moiety having 21 of the polymerization number, to aspartic acid-1-butyl amide-4-(3′-ethynylcytidine)amide [Compound 10]”, in data set [2], the “Release … from the polymer derivative” value is listed as “release 3′-ethynylcytidine despite the absence of a hydrolysis enzyme”, the “Release of 3′-ethynylcytidine relative to PEG-Glu-ECyd” value is “more rapidly than PEG-Glu-ECyd” and the “Release rate of 3′-ethynylcytidine relative to the comparative compounds” value was “equal to or more than that of the comparative compounds”. For the same compound, the “Micelle formation in water” value in data set [3] is given as “did not form a micelle in water at this concentration”. Besides, the “Relative ratio of tumor volume” value in data set [1] (setting [4]) amounted to 46.7. Also, in data set [1] (setting [5]), the “Relative ratio of tumor volume” value came to 26.4. Besides, the “Anti-tumor effects in comparison to 3′-ethynylcytidine as the control drug” value in data set [1] is “strong anti-tumor effects”.

As for “amide-bonded body of block copolymer including methoxy polyethylene-glycol structural moiety having 12,000 of the molecular weight and polyglutamic acid moiety having 21 of the polymerization number, to aspartic acid-1-phenylalanine-(4-phenylbutyl ester)-4-(3′-ethynylcytidine)amide [Compound 21]”, in data set [2], the “Release … from the polymer derivative” value is recorded as “release 3′-ethynylcytidine despite the absence of a hydrolysis enzyme” and the “Release rate of 3′-ethynylcytidine relative to the comparative compounds” value is given as “equal to or more than that of the comparative compounds”. Also, in data set [3], the “Micelle formation in water” value is recorded as “formed a micelle in water”, the “RMS radius by static light scattering method” value turned out to be 40 nm and the “RMS radius … (dynamic light scattering)” value is given as 41 nm.

Take “amide-bonded body of block copolymer including methoxy polyethylene-glycol structural moiety having 12,000 of the molecular weight and polyglutamic acid moiety having 21 of the polymerization number, to aspartic acid-1-phenylbutyl amide-4-(3′-ethynylcytidine)amide [Compound 5]”: in data set [2], the “Release … from the polymer derivative” value is “release 3′-ethynylcytidine despite the absence of a hydrolysis enzyme”, the “Release of 3′-ethynylcytidine relative to PEG-Glu-ECyd” value is given as “more rapidly than PEG-Glu-ECyd” and the “Release rate of 3′-ethynylcytidine relative to the comparative compounds” value is “equal to or more than that of the comparative compounds”. Also, in data set [3], the “Micelle formation in water” value is “forms a micelle in water”, the “RMS radius by static light scattering method” value is listed as 11 nm and the “RMS radius … (dynamic light scattering)” value was 18 nm. Further, the “Relative ratio of tumor volume” value in data set [1] (setting [4]) is 44.9. For the same compound, in data set [1] (setting [5]), the “Relative ratio of tumor volume” value was 29.3. Further, in data set [1], the “Anti-tumor effects in comparison to 3′-ethynylcytidine as the control drug” value is “strong anti-tumor effects”.

On to “amide-bonded body of block copolymer including two methoxy polyethylene glycol moieties having 5,000 of the molecular weight and polyglutamic acid moiety having 21 of the polymerization number, to aspartic acid-1-adamantane methyl amide-4-(3′-ethynylcytidine)amide [Compound 22]”, for which, in data set [2], the “Release … from the polymer derivative” value is “release 3′-ethynylcytidine despite the absence of a hydrolysis enzyme” and the “Release rate of 3′-ethynylcytidine relative to the comparative compounds” value is on record as “equal to or more than that of the comparative compounds”. In data set [3], the “Micelle formation in water” value is given as “formed a micelle in water”, the “RMS radius by static light scattering method” value is 8 nm and the “RMS radius … (dynamic light scattering)” value came out at 14 nm.

Source of the values: US20130331517A1, “Novel Polymer Derivative Of Cytidine Metabolic Antagonist” (NIPPON KAYAKU KABUSHIKI KAISHA, priority 2010, published 2013).
